Assay results from patent US20190367589A1.

Assays:
[1] = molecular target: rat Jagged 2 (rJAG2) (rat) (UniProt P97607); assay: drawn table 'Kd (nM)' of Fab; method not stated; the legend names the matured antibody as 4D11
mouse Jagged 1 (mouse) [2] = assay: ELISA, ligand-Fc coated (method lists rat Jagged 1-Fc), anti-human IgG Fab-specific HRP
mouse Jagged 1 (mouse) [3] = assay: ELISA as for the other curves; sheet and legend say mouse Jagged 1, the method lists rat Jagged 1-Fc as the coated protein

Kd [1]	affinity (ELISA) (mouse Jagged 1 (mouse) [2])	EC50 (read off the curve) (mouse Jagged 1 (mouse) [3])	Binder
< 1 nM			4D11 Fab (Fab, V domains shown) VH: EVQLLESGGGLVQPGGSLRLSCAASGFTFSSYAMSWVRQAPGKGLEWVSSIDPEGRQTYYADSVKGRFTISRDNSKNTLYLQMNSLRAEDTAVYYCAKDIGGRSAFDYWGQGTLVTVSS VL: DIQMTQSPSSLSASVGDRVTITCRASQSISSYLNWYQQKPGKAPKLLIYAASSLQSGVPSRFSGSGSGTDFTLTISSLQPEDFATYYCQQTVVAPPLFGQGTKVEIKR
	> 30 nM	50 nM	anti-Jagged 32 IgG (antibody, V domains shown) VH: EVQLLESGGGLVQPGGSLRLSCAASGFTFSSYAMSWVRQAPGKGLEWVSSIEQMGWQTYYADSVKGRFTISRDNSKNTLYLQMNSLRAEDTAVYYCAKSAAAFDYWGQGTLVTVSS VL: DIQMTQSPSSLSASVGDRVTITCRASQSISSYLNWYQQKPGKAPKLLIYAASLQSGVPSRFSGSGSGTDFTLTISSLQPEDFATYYCQQTVVAPLTFGQGTKVEIKR
	> 30 nM		anti-Jagged 13 IgG (antibody, V domains shown) VH: EVQLLESGGGLVQPGGSLRLSCAASGFTFSSYAMSWVRQAPGKGLEWVSSIETQGPTTLYADSVKGRFTISRDNSKNTLYLQMNSLRAEDTAVYYCAKTSSAFDYWGQGTLVTVSS VL: DIQMTQSPSSLSASVGDRVTITCRASQSISSYLNWYQQKPGKAPKLLIYASSLQSGVPSRFSGSGSGTDFTLTIGSLQPEDFATYYCQQNVATPLTFGQGTKVEIKR
